First the molecules themselves.
B1: SPACA3 (parent)
chain: FTSGFNAAALDYEADGSTNNGIFQ
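Further: lentivirally expressed fusions sorted by FACS into six bins by GFP to DsRed ratio, PSI derived from sequencing read proportions per bin multiplied by bin number.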

Variants of B1 are the subject of the data set. As to the kind of experiment: protein stability index of a GFP-peptide fusion (GPS, HEK-293T) (PSI 1-6); higher = more stable. As to conditions: c terminus: a fixed tail appended.
Consider FTSGFNAAALDYEADASTNNGIFQ [G16A], for which the protein stability index worked out at 2.3.

For the variant FTSGFNAAALDYEADCSTNNGIFQ [G16C], the protein stability index came to 1.49.

Take FTSGFNAAALDYEADYSTNNGIFQ [G16Y]: the protein stability index is 1.66.

For FTSGFNAAALDYEADKSTNNGIFQ [G16K], the protein stability index worked out at 2.26.

As to FTSGFNAAALDYEADVSTNNGIFQ [G16V], the protein stability index turned out to be 1.78.

For FTSGFNAAALDYEADPSTNNGIFQ [G16P], the protein stability index stood at 1.97.

Turning to FTSGFNAAALDYEADESTNNGIFQ [G16E], the protein stability index was 2.31.

Turning to FTSGFNAAALDYEADNSTNNGIFQ [G16N], the protein stability index was 2.33.

As to FTSGFNAAALDYEADLSTNNGIFQ [G16L], the protein stability index was 1.72.

Regarding FTSGFNAAALDYEADSSTNNGIFQ [G16S], the protein stability index turned out to be 1.83.

As for FTSGFNAAALDYEADHSTNNGIFQ [G16H], the protein stability index is 2.19.

On to DTSGFNAAALDYEADGSTNNGIFQ [F1D], for which the protein stability index came to 5.15.

WTSGFNAAALDYEADGSTNNGIFQ [F1W]: the protein stability index was 3.6.

With ETSGFNAAALDYEADGSTNNGIFQ [F1E], the protein stability index was determined as 5.11.

For LTSGFNAAALDYEADGSTNNGIFQ [F1L], the protein stability index worked out at 4.01.

In the case of PTSGFNAAALDYEADGSTNNGIFQ [F1P], the protein stability index is 4.29.

On to CTSGFNAAALDYEADGSTNNGIFQ [F1C], for which the protein stability index came out at 3.44.

For the variant VTSGFNAAALDYEADGSTNNGIFQ [F1V], the protein stability index was found to be 4.46.

Regarding TTSGFNAAALDYEADGSTNNGIFQ [F1T], the protein stability index stood at 4.63.

On to FTGGFNAAALDYEADGSTNNGIFQ [S3G], for which the protein stability index came to 4.05.

FTEGFNAAALDYEADGSTNNGIFQ [S3E]: the protein stability index was 2.

Consider FTFGFNAAALDYEADGSTNNGIFQ [S3F], for which the protein stability index was found to be 2.12.

On to FTNGFNAAALDYEADGSTNNGIFQ [S3N], for which the protein stability index came out at 2.56.

Take FTPGFNAAALDYEADGSTNNGIFQ [S3P]: the protein stability index stood at 2.29.

As to FTSGFNAWALDYEADGSTNNGIFQ [A8W], the protein stability index is 2.61.

As for FTSGFNAVALDYEADGSTNNGIFQ [A8V], the protein stability index came to 2.4.

As to FTSGFNAEALDYEADGSTNNGIFQ [A8E], the protein stability index was 2.35.

In the case of FTSGFNAHALDYEADGSTNNGIFQ [A8H], the protein stability index was 1.85.

For the variant FTSGFNASALDYEADGSTNNGIFQ [A8S], the protein stability index came out at 1.99.

Regarding FTSGFNAYALDYEADGSTNNGIFQ [A8Y], the protein stability index is 1.89.

Regarding FTSGFNACALDYEADGSTNNGIFQ [A8C], the protein stability index came to 1.77.

With FTSGFNANALDYEADGSTNNGIFQ [A8N], the protein stability index turned out to be 2.35.

As to FTSGFNAAALDYEADGSTNNLIFQ [G21L], the protein stability index is 2.06.

Take FTSGFNAAALDYEADGSTNNNIFQ [G21N]: the protein stability index amounted to 1.84.

In the case of FTSGFNAAALDYEADGSTNNEIFQ [G21E], the protein stability index stood at 2.28.

Consider FTSGFNAAALDYEADGSTNNSIFQ [G21S], for which the protein stability index worked out at 1.72.

For the variant FTSGFNAAALDYEADGSTNNTIFQ [G21T], the protein stability index came to 2.02.

FTSGFNAAALDYEADGSTNNMIFQ [G21M]: the protein stability index turned out to be 1.51.

With FTSGFNAAALDYEADGSTNNCIFQ [G21C], the protein stability index was 1.97.

Turning to FTSGFNAAALDYEADGSTNNHIFQ [G21H], the protein stability index amounted to 1.98.

FTSGFNAAALDYEADGSTTNGIFQ [N19T]: the protein stability index came out at 1.84.

Turning to FTSGFNAAALDYEADGSTLNGIFQ [N19L], the protein stability index was found to be 1.78.

For FTSGFNAAALDYEADGSTWNGIFQ [N19W], the protein stability index amounted to 1.55.

FTSGFNAAALDYEADGSTDNGIFQ [N19D]: the protein stability index was found to be 2.38.

Take FTSGFNAAALDYEADGSTHNGIFQ [N19H]: the protein stability index stood at 2.52.

On to FTSGFNAAALDYEADGSTQNGIFQ [N19Q], for which the protein stability index stood at 2.44.

Regarding FTSGFNAAALDYEADGSTENGIFQ [N19E], the protein stability index came out at 2.23.

In the case of FTSGFNAAALDYEADGSTINGIFQ [N19I], the protein stability index came to 1.79.

Take FTSGFNAAALDYEADGSTNNGIFT [Q24T]: the protein stability index stood at 2.23.

For the variant FTSGFNAAALDYEADGSTNNGIFC [Q24C], the protein stability index worked out at 1.93.

Turning to FTSGFNAAALDYEADGSTNNGIFA [Q24A], the protein stability index stood at 1.47.

For the variant FTSGFNAAALDYEADGSTNNGIFF [Q24F], the protein stability index came to 1.92.

Regarding FTSGFNAAALDYEADGSTNNGIFN [Q24N], the protein stability index turned out to be 1.67.

On to FTSGFNAAALDYEADGSTNNGIFS [Q24S], for which the protein stability index came to 1.85.

With FTSGFNAAALQYEADGSTNNGIFQ [D11Q], the protein stability index was 2.01.

Turning to FTSGFNAAALPYEADGSTNNGIFQ [D11P], the protein stability index worked out at 1.84.

On to FTSGFNAAALIYEADGSTNNGIFQ [D11I], for which the protein stability index was 2.27.

Turning to FTSGFNAAALHYEADGSTNNGIFQ [D11H], the protein stability index stood at 2.04.

FTSGFNAAALLYEADGSTNNGIFQ [D11L]: the protein stability index is 1.93.

In the case of FTSGFNAAALEYEADGSTNNGIFQ [D11E], the protein stability index came to 1.79.

For the variant FTSGFNAAALNYEADGSTNNGIFQ [D11N], the protein stability index came out at 1.57.

With FTSGFNAAALAYEADGSTNNGIFQ [D11A], the protein stability index came to 2.16.

FCSGFNAAALDYEADGSTNNGIFQ [T2C]: the protein stability index turned out to be 2.08.

For the variant FISGFNAAALDYEADGSTNNGIFQ [T2I], the protein stability index is 2.02.

As to FESGFNAAALDYEADGSTNNGIFQ [T2E], the protein stability index turned out to be 4.66.

For the variant FVSGFNAAALDYEADGSTNNGIFQ [T2V], the protein stability index was 2.31.

In the case of FHSGFNAAALDYEADGSTNNGIFQ [T2H], the protein stability index was determined as 2.02.

Consider FYSGFNAAALDYEADGSTNNGIFQ [T2Y], for which the protein stability index turned out to be 2.75.

As for FNSGFNAAALDYEADGSTNNGIFQ [T2N], the protein stability index came out at 3.81.

Regarding FASGFNAAALDYEADGSTNNGIFQ [T2A], the protein stability index was determined as 2.44.

On to FDSGFNAAALDYEADGSTNNGIFQ [T2D], for which the protein stability index was 4.32.

Regarding FTSGFNAAALDYEADGSTNNGSFQ [I22S], the protein stability index turned out to be 1.86.

Turning to FTSGFNAAALDYEADGSTNNGTFQ [I22T], the protein stability index turned out to be 2.06.

With FTSGFNAAALDYEADGSTNNGNFQ [I22N], the protein stability index was found to be 2.13.

Take FTSGFNAAALDYEADGSTNNGFFQ [I22F]: the protein stability index is 1.69.

Turning to FTSGFNAAALDYEADGSTNNGYFQ [I22Y], the protein stability index turned out to be 2.06.

As for FTSGFNAAALDYEADGSTNNGQFQ [I22Q], the protein stability index came to 2.13.

Consider FTSGFNAAALDYEADGSTNNGAFQ [I22A], for which the protein stability index is 2.36.

As to FTSGFNAAALDYEADGSTNNGGFQ [I22G], the protein stability index is 2.25.

In the case of FTSGFNAAALDYEADGSTNNGRFQ [I22R], the protein stability index was 2.09.

With FTSGFNAAALDYEADGSTNNGEFQ [I22E], the protein stability index worked out at 2.4.

Take FTSGFNAAALDYEADGSTNNGLFQ [I22L]: the protein stability index is 1.74.

Regarding FTSGFNAAALDYEADGSTNNGKFQ [I22K], the protein stability index is 1.93.

As to FTSGFNAAALDYMADGSTNNGIFQ [E13M], the protein stability index came out at 1.82.

For FTSGFNAAALDYTADGSTNNGIFQ [E13T], the protein stability index amounted to 2.21.

Turning to FTSGFNAAALDYHADGSTNNGIFQ [E13H], the protein stability index stood at 2.24.

Regarding FTSGFNAAALDYCADGSTNNGIFQ [E13C], the protein stability index amounted to 1.87.

In the case of FTSGFNAAALDYQADGSTNNGIFQ [E13Q], the protein stability index was determined as 1.56.

As for FTSGFLAAALDYEADGSTNNGIFQ [N6L], the protein stability index was 2.78.

Take FTSGFMAAALDYEADGSTNNGIFQ [N6M]: the protein stability index was determined as 3.01.

With FTSGFQAAALDYEADGSTNNGIFQ [N6Q], the protein stability index was 1.94.

Turning to FTSGFAAAALDYEADGSTNNGIFQ [N6A], the protein stability index was determined as 1.84.

On to FTSGFHAAALDYEADGSTNNGIFQ [N6H], for which the protein stability index amounted to 2.38.

Take FTSGFKAAALDYEADGSTNNGIFQ [N6K]: the protein stability index turned out to be 2.45.

For the origin of these results see the supplement of paper PMC10567573.
